Experimental data as given in PMC10663500, “High-throughput analysis system of interaction kinetics for data-driven antibody design” (Scientific Reports, 2023).

Experiments:
Conditions in all cases: one partner purified
[1] = target: T1, mouse programmed cell death protein 1 C60S (aa 25-167) Fc fusion protein (Mus musculus, UniProt Q02242, stabilised); test: SPR; BreviA on Carterra LSA: Fab from ammonium sulfate precipitate of Brevibacillus supernatant immobilised on NiHC200M sensor; hPD-1 (1-1024 nM) or mPD-1-Fc (4-1024 nM) as analyte, fourfold dilution series, no regeneration; HBS-EP pH 7.4, 25 °C; medians of spots
T1 construct: the Fc was not cleaved; also called mPD-1-Fc; mPD-1 Fc fusion protein; source: Expi293F, transfected, purified (Protein A, SEC; dimeric fraction)

[2] = target: T2, human programmed cell death protein 1 (hPD-1) C93S (aa 24-167) (Homo sapiens, UniProt Q15116, C93S); test: SPR; Carterra LSA; Fab from the ammonium sulfate precipitate of the culture supernatant immobilised on a NiHC200M chip; hPD-1 (1-1024 nM) or mPD-1-Fc (4-1024 nM) as analyte, fourfold dilution series, no regeneration; HBS-EP pH 7.4, 25 °C; medians over the spots of a construct, KD = koff/kon
T2 construct: made as a fusion with a TEV site and human Fc; the Fc was cut off with TEV protease; source: Expi293F, purified (Protein A, TEV cleavage of Fc, SEC; monomer fractions); not shown: Fc (human), C-terminal, cleaved
In short: (§1)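 Fabs from Brevibacillus culture supernatants were ammonium sulfate-precipitated, redissolved in HBS-EP and captured in duplicate on a NiHC200M chip (Carterra LSA, 25 °C). Human PD-1 (1–1024 nM) or mouse PD-1-Fc (4–1024 nM) flowed as fourfold series without regeneration, with 10 min association and 5 min dissociation; unconfirmed binders were set to kon 10^3 […], koff 10^−2 s^−1. Rates came from kdka model fits (slow- or fast-dissociation settings, best fit); KD is koff/kon from per-construct medians.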

[3] = target: T3, mouse programmed cell death protein 1 Fc fusion protein (mPD-1-Fc), mPD-1 C60S (aa 25-167) (Mus musculus, UniProt Q02242, stabilised); test: as above
T3 construct: not cleaved; source: Expi293F, purified (Protein A, SEC; dimeric fraction); not shown: Fc (human), C-terminal, kept
In short: as §1

T2 sequence (Q15116 24-167 C93S): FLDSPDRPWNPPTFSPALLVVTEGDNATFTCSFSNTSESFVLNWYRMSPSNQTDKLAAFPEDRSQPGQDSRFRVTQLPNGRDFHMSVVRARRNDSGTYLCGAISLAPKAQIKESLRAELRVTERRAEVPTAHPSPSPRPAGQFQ

B1: toripalimab Fab L.V99G (Fab, V domains shown)
VH: QGQLVQSGAEVKKPGASVKVSCKASGYTFTDYEMHWVRQAPIHGLEWIGVIESETGGTAYNQKFKGRVTITADKSTSTAYMELSSLRSEDTAVYYCAREGITTVATTYYWYFDVWGQGTTVTVSS
VL: DVVMTQSPLSLPVTLGQPASISCRSSQSIVHSNGNTYLEWYLQKPGQSPQLLIYKVSNRFSGVPDRFSGSGSGTDFTLKISRVEAEDVGVYYCFQGSHGPLTFGQGTKLEIK
notes: as the heavy chain of m1; as the light chain of m1, with the stated change; source: Brevibacillus, secreted into culture supernatant, ammonium sulfate precipitate (not further purified); not shown: 6xHis, C-terminal, kept; 6xHN, C-terminal, kept
Q: With B1 as the binder, how does the “fold increase in affinity against the wild type” value [1] read?
A: Its value is > 100 fold.

B2: toripalimab Fab L.T102A (Fab, V domains shown)
VH: QGQLVQSGAEVKKPGASVKVSCKASGYTFTDYEMHWVRQAPIHGLEWIGVIESETGGTAYNQKFKGRVTITADKSTSTAYMELSSLRSEDTAVYYCAREGITTVATTYYWYFDVWGQGTTVTVSS
VL: DVVMTQSPLSLPVTLGQPASISCRSSQSIVHSNGNTYLEWYLQKPGQSPQLLIYKVSNRFSGVPDRFSGSGSGTDFTLKISRVEAEDVGVYYCFQGSHVPLAFGQGTKLEIK
notes: as the heavy chain of Sm3; light chain of Sm3 with this change; numbers count from the chain's first residue; source: Brevibacillus, culture supernatant (ammonium sulfate precipitate); not shown: 6xHis, C-terminal, kept; 6xHN, C-terminal, kept
Q: What does the source list for B2?
A: Kd [2]: < 0.809 nM; koff [2]: < 1e-05 s⁻¹; kon [2]: 12400 M⁻¹ s⁻¹; Kd [3]: 115 nM; koff [3]: 0.00395 s⁻¹; kon [3]: 34200 M⁻¹ s⁻¹

B3: toripalimab Fab L.P100H (Fab, V domains shown)
VH: QGQLVQSGAEVKKPGASVKVSCKASGYTFTDYEMHWVRQAPIHGLEWIGVIESETGGTAYNQKFKGRVTITADKSTSTAYMELSSLRSEDTAVYYCAREGITTVATTYYWYFDVWGQGTTVTVSS
VL: DVVMTQSPLSLPVTLGQPASISCRSSQSIVHSNGNTYLEWYLQKPGQSPQLLIYKVSNRFSGVPDRFSGSGSGTDFTLKISRVEAEDVGVYYCFQGSHVHLTFGQGTKLEIK
notes: as for B1
Q: How did the “fold increase in affinity against the wild type” value [1] turn out when B3 was run?
A: The value was > 100 fold.

B4: toripalimab Fab L.T102Y (Fab, V domains shown)
VH: QGQLVQSGAEVKKPGASVKVSCKASGYTFTDYEMHWVRQAPIHGLEWIGVIESETGGTAYNQKFKGRVTITADKSTSTAYMELSSLRSEDTAVYYCAREGITTVATTYYWYFDVWGQGTTVTVSS
VL: DVVMTQSPLSLPVTLGQPASISCRSSQSIVHSNGNTYLEWYLQKPGQSPQLLIYKVSNRFSGVPDRFSGSGSGTDFTLKISRVEAEDVGVYYCFQGSHVPLYFGQGTKLEIK
notes: as for B2
Q: For B4, which Kd [2] is on record?
A: The Kd was < 0.441 nM.

Q: What about the koff [2] of the same binder?
A: The koff was < 1e-05 s⁻¹.

Q: What about the kon [2] of the same binder?
A: Its kon is 22700 M⁻¹ s⁻¹.

Q: What about the Kd [3] of the same binder?
A: The Kd was 78.4 nM.

Q: What about the koff [3] of the same binder?
A: Its koff is 0.00282 s⁻¹.

Q: And the kon [3]?
A: Its kon is 36000 M⁻¹ s⁻¹.

B5: toripalimab Fab L.L101Y (Fab, V domains shown)
VH: QGQLVQSGAEVKKPGASVKVSCKASGYTFTDYEMHWVRQAPIHGLEWIGVIESETGGTAYNQKFKGRVTITADKSTSTAYMELSSLRSEDTAVYYCAREGITTVATTYYWYFDVWGQGTTVTVSS
VL: DVVMTQSPLSLPVTLGQPASISCRSSQSIVHSNGNTYLEWYLQKPGQSPQLLIYKVSNRFSGVPDRFSGSGSGTDFTLKISRVEAEDVGVYYCFQGSHVPYTFGQGTKLEIK
notes: as for B2
Q: Which results are given for B5?
A: Kd [2]: < 1.18 nM; koff [2]: < 1e-05 s⁻¹; kon [2]: 8500 M⁻¹ s⁻¹; Kd [3]: 125 nM; koff [3]: 0.00356 s⁻¹; kon [3]: 28400 M⁻¹ s⁻¹

B6: toripalimab Fab L.L101V (Fab, V domains shown)
VH: QGQLVQSGAEVKKPGASVKVSCKASGYTFTDYEMHWVRQAPIHGLEWIGVIESETGGTAYNQKFKGRVTITADKSTSTAYMELSSLRSEDTAVYYCAREGITTVATTYYWYFDVWGQGTTVTVSS
VL: DVVMTQSPLSLPVTLGQPASISCRSSQSIVHSNGNTYLEWYLQKPGQSPQLLIYKVSNRFSGVPDRFSGSGSGTDFTLKISRVEAEDVGVYYCFQGSHVPVTFGQGTKLEIK
notes: as for B2
Q: B6 was tested. Which Kd [2] did it give?
A: The Kd was 2.41 nM.

Q: And the koff [2]?
A: Its koff is 1.35e-05 s⁻¹.

Q: What about the kon [2] of the same binder?
A: Its kon is 5600 M⁻¹ s⁻¹.

Q: And the Kd [3]?
A: Its Kd is 90.5 nM.

Q: What about the koff [3] of the same binder?
A: Its koff is 0.00146 s⁻¹.

Q: And the kon [3]?
A: Its kon is 16100 M⁻¹ s⁻¹.
